Experiments:
[1] = molecular target: the molecule itself; test: native MS; His-tagged Hth1307 in 200 mM ammonium acetate pH 7, nano-electrospray, Q-Exactive UHMR; 500-1000 nM protein
[2] = molecular target: the molecule itself; test: crystal structure; lower molecular weight fraction of Hth1307; 2 M ammonium sulfate, 0.1 M Bis-Tris pH 5.5, 4 C; space group C2221, two protomers in the asymmetric unit; tetramer by crystal symmetry
[3] = molecular target: the molecule itself; test: SEC; analytical, Superdex 200 Increase 5/150 GL, 50 mM Tris pH 8.5, 150 mM NaCl, 1 mM TCEP; Hth1307 from 93.6 nM upwards; A280
[4] = molecular target: the molecule itself; test: SEC; oligomers seen when purifying Aq880 (Superdex 200 pg 16/600; 50 mM Tris pH 8.5, 150 mM NaCl, 1 mM TCEP)

B1: His-tagged Hth1307 (enzyme, Hydrogenobacter thermophilus)
chain: MDTFVLDTSVFTNPDVYHQFEEDQLGAIENFISLASHTNANFFMPTSVYYEFTKMVSLGDLAPKFELVVRIRSPRKWGLMVPAEFLYEFIEEVRYRINKGLRIAEEHTKEAGKLAEEEVGRVVNRLREKYREALRAGIIDSKEDVDVLLLSYELDAILVSGDEGLRKWADRVGIKLIDPKNLRYIMENLTKVGR
notes: HARP (RNA-free RNase P) of Hydrogenobacter thermophilus, Hth1307; gene synthesised by Integrated DNA Technologies; Same construct as m2 (pMCSG7, N-terminal His6 and TEV site) with the tag left on; also called His-tagged Hydrogenobacter thermophilus HARP; source: E. coli BL21 Rosetta DE3, purified; not shown: His6, N-terminal, kept; copies: 14
In the case of B1, the “stoichiometry N” value [1] is reported as 14.

B2: Hydrogenobacter thermophilus HARP (Hth1307) (enzyme)
chain: MDTFVLDTSVFTNPDVYHQFEEDQLGAIENFISLASHTNANFFMPTSVYYEFTKMVSLGDLAPKFELVVRIRSPRKWGLMVPAEFLYEFIEEVRYRINKGLRIAEEHTKEAGKLAEEEVGRVVNRLREKYREALRAGIIDSKEDVDVLLLSYELDAILVSGDEGLRKWADRVGIKLIDPKNLRYIMENLTKVGR
notes: HARP (RNA-free RNase P) of Hydrogenobacter thermophilus, Hth1307; gene synthesised by Integrated DNA Technologies; Cloned into pMCSG7 (N-terminal His6 tag and TEV site); the tag was removed with TEV protease by the general purification protocol; also called Ht HARP; source: E. coli BL21 Rosetta DE3, purified (Ni-Sepharose, DEAE, TEV cleavage, second Ni-Sepharose, SEC); not shown: His6, …
In the case of B2, the “stoichiometry N” value [2] is reported as 4 and the “stoichiometry N” value [3] is reported as 14.

B3: Aquifex aeolicus HARP (Aq880) (enzyme)
chain: MDVFVLDTSVFTNPEIYRTFEEDQRGAMETFIHLALNSRAEFYMPTSVYTEMRKIMDVGELWAEFEMVVKIRSPRRFQLTVPADFLYEFIEELRYRINKGLRIAEEHTREASGCEDVGKLIARLREKYREALRQGILDSKEDVDVLLLAYELDGVLVSADEGLRTWADKIGIKLIDPKNFKNILESLVRHRF
notes: HARP (RNA-free RNase P) of Aquifex aeolicus, Aq880, 23 kDa; gene synthesised by Integrated DNA Technologies; Cloned into pMCSG7 (N-terminal His6 tag and TEV site); the tag was removed with TEV protease, and residues of the site may be left at the N-terminus (surmised); also called HARP from A. aeolicus; Homolog of Aquifex RNase P; source: E. coli BL21 Rosetta DE3, purified (Ni-Sepharose, DEAE, …)
For B3, the “stoichiometry N” value [4] was 4.

Source: publication PMC10652100, “Bacterial RNA-free RNase P: Structural and functional characterization of multiple oligomeric forms of a minimal protein-only ribonuclease P” (The Journal of Biological Chemistry, 2023)
